Measured values published in the supplement of paper PMC9428881.
± gives the standard error.

Experiment: background-corrected fluorescence of 3'-dye-labeled ssDNA relative to brightest sequence (3'-GCGCG) (fraction); higher = brighter dye fluorescence (less quenching)
Experimental: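 Single-stranded DNA is synthesized in situ on glass microarrays by 5'->3' photolithographic synthesis, with a Cy3 or Cy5 phosphoramidite coupled at the 3' end next to all 1024 permuted pentamers P1-P5. The construct is 5'-T5-(ACGT minus P5..P1 trinucleotides)-T15-P5P4P3P2P1-dye-3'; the dye is a 3' terminal modification, not part of the sequence. Arrays were scanned at 532 nm (Cy3) or 635 nm (Cy5), background from unlabeled oligos was subtracted, and values are averaged over 10 replicate features per array and at least 3 independent syntheses.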

| Sequence | background-corrected fluorescence (dye: Cy3 (3' terminal)) | background-corrected fluorescence (dye: Cy5 (3' terminal)) |
| --- | --- | --- |
| TTTTTGCATGCGCATCATGATTTTTTTTTTTTTTTTATGC [CGTAT] | 0.5 ± 0.026 | 0.377 ± 0.024 |
| TTTTTGCATGCGCATCATGCTTTTTTTTTTTTTTTTATGA [AGTAT] | 0.625 ± 0.025 | 0.579 ± 0.047 |
| TTTTTGCATGCGCATGAGCATTTTTTTTTTTTTTTTATCT [TCTAT] | 0.457 ± 0.037 | 0.33 ± 0.017 |
| TTTTTGCATGCGCATGATCATTTTTTTTTTTTTTTTATCG [GCTAT] | 0.515 ± 0.016 | 0.402 ± 0.031 |
| TTTTTGCATGCGCATGATGATTTTTTTTTTTTTTTTATCC [CCTAT] | 0.384 ± 0.024 | 0.285 ± 0.019 |
| TTTTTGCATGCGCATGATGCTTTTTTTTTTTTTTTTATCA [ACTAT] | 0.478 ± 0.033 | 0.407 ± 0.053 |
| TTTTTGCATGCGCATGCGCATTTTTTTTTTTTTTTTATAT | 0.5701 ± 0.0051 | 0.405 ± 0.037 |
| TTTTTGCATGCGCATGCTCATTTTTTTTTTTTTTTTATAG [GATAT] | 0.548 ± 0.02 | 0.418 ± 0.032 |
| TTTTTGCATGCGCATGCTGATTTTTTTTTTTTTTTTATAC [CATAT] | 0.449 ± 0.022 | 0.333 ± 0.035 |
| TTTTTGCATGCGCATGCTGCTTTTTTTTTTTTTTTTATAA [AATAT] | 0.55 ± 0.038 | 0.441 ± 0.069 |
| TTTTTGCATGCTCAGCAGCATTTTTTTTTTTTTTTTAGTT [TTGAT] | 0.592 ± 0.023 | 0.411 ± 0.032 |
| TTTTTGCATGCTCAGCATCATTTTTTTTTTTTTTTTAGTG [GTGAT] | 0.541 ± 0.027 | 0.455 ± 0.053 |
| TTTTTGCATGCTCAGCATGATTTTTTTTTTTTTTTTAGTC [CTGAT] | 0.492 ± 0.026 | 0.363 ± 0.023 |
| TTTTTGCATGCTCAGCATGCTTTTTTTTTTTTTTTTAGTA [ATGAT] | 0.566 ± 0.018 | 0.491 ± 0.042 |
| TTTTTGCATGCTCATCAGCATTTTTTTTTTTTTTTTAGGT [TGGAT] | 0.634 ± 0.019 | 0.543 ± 0.033 |
| TTTTTGCATGCTCATCATCATTTTTTTTTTTTTTTTAGGG [GGGAT] | 0.653 ± 0.032 | 0.55 ± 0.037 |
| TTTTTGCATGCTCATCATGATTTTTTTTTTTTTTTTAGGC [CGGAT] | 0.617 ± 0.027 | 0.464 ± 0.026 |
| TTTTTGCATGCTCATCATGCTTTTTTTTTTTTTTTTAGGA [AGGAT] | 0.747 ± 0.018 | 0.617 ± 0.032 |
| TTTTTGCATGCTCATGAGCATTTTTTTTTTTTTTTTAGCT [TCGAT] | 0.57 ± 0.025 | 0.42 ± 0.035 |
| TTTTTGCATGCTCATGATCATTTTTTTTTTTTTTTTAGCG [GCGAT] | 0.658 ± 0.008 | 0.494 ± 0.055 |
| TTTTTGCATGCTCATGATGATTTTTTTTTTTTTTTTAGCC [CCGAT] | 0.425 ± 0.017 | 0.311 ± 0.015 |
| TTTTTGCATGCTCATGATGCTTTTTTTTTTTTTTTTAGCA [ACGAT] | 0.52 ± 0.038 | 0.447 ± 0.024 |

| Sequence | background-corrected fluorescence (dye: Cy3 (3' terminal)) | background-corrected fluorescence (dye: Cy5 (3' terminal)) |
| --- | --- | --- |
| TTTTTGCATGCTCATGCGCATTTTTTTTTTTTTTTTAGAT | 0.569 ± 0.031 | 0.463 ± 0.02 |
| TTTTTGCATGCTCATGCTCATTTTTTTTTTTTTTTTAGAG [GAGAT] | 0.591 ± 0.014 | 0.477 ± 0.059 |
| TTTTTGCATGCTCATGCTGATTTTTTTTTTTTTTTTAGAC [CAGAT] | 0.463 ± 0.023 | 0.369 ± 0.015 |
| TTTTTGCATGCTCATGCTGCTTTTTTTTTTTTTTTTAGAA [AAGAT] | 0.639 ± 0.018 | 0.533 ± 0.052 |
| TTTTTGCATGCTGAGCAGCATTTTTTTTTTTTTTTTACTT [TTCAT] | 0.504 ± 0.046 | 0.358 ± 0.039 |
| TTTTTGCATGCTGAGCATCATTTTTTTTTTTTTTTTACTG [GTCAT] | 0.499 ± 0.024 | 0.373 ± 0.027 |
| TTTTTGCATGCTGAGCATGATTTTTTTTTTTTTTTTACTC [CTCAT] | 0.385 ± 0.03 | 0.273 ± 0.018 |
| TTTTTGCATGCTGAGCATGCTTTTTTTTTTTTTTTTACTA [ATCAT] | 0.502 ± 0.027 | 0.388 ± 0.028 |
| TTTTTGCATGCTGATCAGCATTTTTTTTTTTTTTTTACGT | 0.584 ± 0.018 | 0.482 ± 0.038 |
| TTTTTGCATGCTGATCATCATTTTTTTTTTTTTTTTACGG [GGCAT] | 0.697 ± 0.037 | 0.514 ± 0.04 |
| TTTTTGCATGCTGATCATGATTTTTTTTTTTTTTTTACGC [CGCAT] | 0.523 ± 0.0065 | 0.439 ± 0.032 |
| TTTTTGCATGCTGATCATGCTTTTTTTTTTTTTTTTACGA [AGCAT] | 0.627 ± 0.026 | 0.491 ± 0.031 |
| TTTTTGCATGCTGATGAGCATTTTTTTTTTTTTTTTACCT [TCCAT] | 0.461 ± 0.017 | 0.345 ± 0.023 |
| TTTTTGCATGCTGATGATCATTTTTTTTTTTTTTTTACCG [GCCAT] | 0.55 ± 0.026 | 0.439 ± 0.027 |
| TTTTTGCATGCTGATGATGATTTTTTTTTTTTTTTTACCC [CCCAT] | 0.408 ± 0.012 | 0.276 ± 0.019 |
| TTTTTGCATGCTGATGATGCTTTTTTTTTTTTTTTTACCA [ACCAT] | 0.43 ± 0.017 | 0.364 ± 0.02 |
| TTTTTGCATGCTGATGCGCATTTTTTTTTTTTTTTTACAT | 0.489 ± 0.027 | 0.382 ± 0.025 |
| TTTTTGCATGCTGATGCTCATTTTTTTTTTTTTTTTACAG [GACAT] | 0.499 ± 0.036 | 0.413 ± 0.03 |
| TTTTTGCATGCTGATGCTGATTTTTTTTTTTTTTTTACAC [CACAT] | 0.425 ± 0.017 | 0.312 ± 0.014 |
| TTTTTGCATGCTGATGCTGCTTTTTTTTTTTTTTTTACAA [AACAT] | 0.538 ± 0.025 | 0.433 ± 0.059 |
| TTTTTGCATGCTGCGCAGCATTTTTTTTTTTTTTTTAATT | 0.549 ± 0.014 | 0.377 ± 0.027 |
| TTTTTGCATGCTGCGCATCATTTTTTTTTTTTTTTTAATG [GTAAT] | 0.513 ± 0.02 | 0.363 ± 0.023 |

| Sequence | background-corrected fluorescence (dye: Cy3 (3' terminal)) | background-corrected fluorescence (dye: Cy5 (3' terminal)) |
| --- | --- | --- |
| TTTTTGCATGCTGCGCATGATTTTTTTTTTTTTTTTAATC [CTAAT] | 0.458 ± 0.036 | 0.303 ± 0.015 |
| TTTTTGCATGCTGCGCATGCTTTTTTTTTTTTTTTTAATA [ATAAT] | 0.56 ± 0.0062 | 0.458 ± 0.047 |
| TTTTTGCATGCTGCTCAGCATTTTTTTTTTTTTTTTAAGT [TGAAT] | 0.663 ± 0.018 | 0.493 ± 0.031 |
| TTTTTGCATGCTGCTCATCATTTTTTTTTTTTTTTTAAGG [GGAAT] | 0.627 ± 0.024 | 0.518 ± 0.045 |
| TTTTTGCATGCTGCTCATGATTTTTTTTTTTTTTTTAAGC [CGAAT] | 0.524 ± 0.023 | 0.417 ± 0.029 |
| TTTTTGCATGCTGCTCATGCTTTTTTTTTTTTTTTTAAGA [AGAAT] | 0.649 ± 0.011 | 0.589 ± 0.024 |
| TTTTTGCATGCTGCTGAGCATTTTTTTTTTTTTTTTAACT [TCAAT] | 0.492 ± 0.02 | 0.353 ± 0.027 |
| TTTTTGCATGCTGCTGATCATTTTTTTTTTTTTTTTAACG [GCAAT] | 0.51 ± 0.034 | 0.426 ± 0.037 |
| TTTTTGCATGCTGCTGATGATTTTTTTTTTTTTTTTAACC [CCAAT] | 0.396 ± 0.025 | 0.278 ± 0.021 |
| TTTTTGCATGCTGCTGATGCTTTTTTTTTTTTTTTTAACA [ACAAT] | 0.557 ± 0.022 | 0.405 ± 0.033 |
| TTTTTGCATGCTGCTGCGCATTTTTTTTTTTTTTTTAAAT | 0.612 ± 0.027 | 0.454 ± 0.038 |
| TTTTTGCATGCTGCTGCTCATTTTTTTTTTTTTTTTAAAG [GAAAT] | 0.552 ± 0.036 | 0.397 ± 0.021 |
| TTTTTGCATGCTGCTGCTGATTTTTTTTTTTTTTTTAAAC [CAAAT] | 0.447 ± 0.028 | 0.336 ± 0.028 |
| TTTTTGCATGCTGCTGCTGCTTTTTTTTTTTTTTTTAAAA [AAAAT] | 0.631 ± 0.013 | 0.52 ± 0.028 |
| TTTTTTCAGCAGCAGCAGCATTTTTTTTTTTTTTTGTTTT | 0.531 ± 0.019 | 0.368 ± 0.021 |
| TTTTTTCAGCAGCAGCATCATTTTTTTTTTTTTTTGTTTG | 0.517 ± 0.028 | 0.33 ± 0.029 |
| TTTTTTCAGCAGCAGCATGATTTTTTTTTTTTTTTGTTTC [CTTTG] | 0.409 ± 0.024 | 0.306 ± 0.036 |
| TTTTTTCAGCAGCAGCATGCTTTTTTTTTTTTTTTGTTTA [ATTTG] | 0.521 ± 0.027 | 0.403 ± 0.022 |
| TTTTTTCAGCAGCATCAGCATTTTTTTTTTTTTTTGTTGT | 0.679 ± 0.031 | 0.494 ± 0.027 |
| TTTTTTCAGCAGCATCATCATTTTTTTTTTTTTTTGTTGG [GGTTG] | 0.582 ± 0.0069 | 0.471 ± 0.028 |
| TTTTTTCAGCAGCATCATGATTTTTTTTTTTTTTTGTTGC [CGTTG] | 0.53 ± 0.024 | 0.389 ± 0.025 |
| TTTTTTCAGCAGCATCATGCTTTTTTTTTTTTTTTGTTGA [AGTTG] | 0.632 ± 0.027 | 0.548 ± 0.046 |
